Measured values from patent US20180362628A1 (KYMAB, published 2018).
Where two headings read alike, the source gives them in different places. No end group written: not given here. *: point of attachment. Biotin = O=C1N[C@H]2[C@H](CS[C@H]2CCCCC(=O)*)N1

Legend:
[1] = biological target: Recombinant CSP (Wellcome Trust Sanger Institute, FIG. 22), CSP ectodomain with BirA biotinylation tag, biolinker and histidine tag (Plasmodium falciparum strain 3D7) (UniProt Q7K740); assay: SPR, 2A10 on anti-mouse capture surface, CSP as analyte, 25 C, 1:1 fit
[2] = biological target: T1, Peptide #3 (Biotin-SGSGHKKLKQPGDGNPDPNANPN) (N-terminal biotin); assay: BLI, biotin-peptide on streptavidin sensor, IgG1 in solution, 25 C;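 for Response (nm): antibody solution at 30 µg/mL during association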
T1 construct: also called Peptide #3 44288
T1 peptide: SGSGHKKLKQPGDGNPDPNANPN

[3] = biological target: T2, Peptide #4 (Biotin-SGSGNPDPNANP); assay: as above
T2 construct: also called Peptide #4 44285
T2 peptide: Biotin-SGSGNPDPNANP

[4] = biological target: T3, Peptide #5 (Biotin-SGSGDGNPDPNANPNV), original sequence of the alanine scan; assay: as above
T3 construct: also called Peptide #5 44289
T3 peptide: Biotin-SGSGDGNPDPNANPNV

[5] = biological target: T4, Peptide #6 (Biotin-SGSGAGNPDPNANPNV); assay: as above
T4 construct: alanine scan variant; also called Peptide #6 44290
T4 peptide: Biotin-SGSGAGNPDPNANPNV

[6] = biological target: T5, Peptide #7 (Biotin-SGSGDANPDPNANPNV); assay: as above
T5 construct: alanine scan variant; also called Peptide #7 44291
T5 peptide: Biotin-SGSGDANPDPNANPNV

[7] = biological target: T6, Peptide #8 (Biotin-SGSGDGAPDPNANPNV); assay: as above
T6 construct: alanine scan variant; also called Peptide #8 44292
T6 peptide: Biotin-SGSGDGAPDPNANPNV

[8] = biological target: T7, Peptide #9 (Biotin-SGSGDGNADPNANPNV); assay: as above
T7 construct: alanine scan variant; also called Peptide #9 44293
T7 peptide: Biotin-SGSGDGNADPNANPNV

[9] = biological target: T8, Peptide #10 (Biotin-SGSGDGNPAPNANPNV); assay: as above
T8 construct: alanine scan variant; also called Peptide #10 44294
T8 peptide: Biotin-SGSGDGNPAPNANPNV

[10] = biological target: T9, Peptide #11 (Biotin-SGSGDGNPDANANPNV); assay: as above
T9 construct: alanine scan variant; also called Peptide #11 44295
T9 peptide: Biotin-SGSGDGNPDANANPNV

[11] = biological target: T10, Peptide #12 (Biotin-SGSGDGNPDPAANPNV); assay: as above
T10 construct: alanine scan variant; also called Peptide #12 44296
T10 peptide: Biotin-SGSGDGNPDPAANPNV

[12] = biological target: T11, Peptide #14 (Biotin-SGSGDGNPDPNAAPNV); assay: as above
T11 construct: alanine scan variant; also called Peptide #14 44298
T11 peptide: Biotin-SGSGDGNPDPNAAPNV

[13] = biological target: T12, Peptide #15 (Biotin-SGSGDGNPDPNANANV); assay: as above
T12 construct: alanine scan variant; also called Peptide #15 44299
T12 peptide: Biotin-SGSGDGNPDPNANANV

[14] = biological target: T13, Peptide #16 (Biotin-SGSGDGNPDPNANPAV); assay: as above
T13 construct: alanine scan variant; also called Peptide #16 44300
T13 peptide: Biotin-SGSGDGNPDPNANPAV

[15] = biological target: T14, Peptide #17 (Biotin-SGSGDGNPDPNANPNA); assay: as above
T14 construct: alanine scan variant; also called Peptide #17 44301
T14 peptide: Biotin-SGSGDGNPDPNANPNA

[16] = biological target: T15, Peptide #1 (Biotin-SGSGKPKHKKLKQPGDGNPDPNANP) (N-terminal biotin); assay: as above
T15 construct: also called Peptide #1 44286
T15 peptide: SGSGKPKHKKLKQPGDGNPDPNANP

[17] = biological target: T16, Recombinant CSP (Wellcome Trust Sanger Institute, FIG. 22), CSP ectodomain with BirA biotinylation tag, … (Plasmodium falciparum strain 3D7, UniProt Q7K740 19-376, biotinylated at the BirA substrate peptide); assay: SPR, IgG1 captured, CSP as analyte, 40 C; apparent affinity (avidity)
T16 construct: extracellular domain; Expressed in HEK293, 45 kDa; order of the tags is that of the legend, not confirmed; also called biotinylated recombinant CSP

[18] = biological target: T1, Peptide #3 …; assay: BLI, biotin-peptide on streptavidin sensor, IgG1 in solution, 25 C;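 for Response (nm): antibody solution at 30 µg/mL during association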
[19] = biological target: T2, Peptide #4 (Biotin-SGSGNPDPNANP); assay: as above
[20] = biological target: T3, Peptide #5 (Biotin-SGSGDGNPDPNANPNV), …; assay: as above
[21] = biological target: T4, Peptide #6 (Biotin-SGSGAGNPDPNANPNV); assay: as above
[22] = biological target: T5, Peptide #7 (Biotin-SGSGDANPDPNANPNV); assay: as above
[23] = biological target: T6, Peptide #8 (Biotin-SGSGDGAPDPNANPNV); assay: as above
[24] = biological target: T7, Peptide #9 (Biotin-SGSGDGNADPNANPNV); assay: as above
[25] = biological target: T8, Peptide #10 (Biotin-SGSGDGNPAPNANPNV); assay: as above
[26] = biological target: T9, Peptide #11 (Biotin-SGSGDGNPDANANPNV); assay: as above
[27] = biological target: T10, Peptide #12 (Biotin-SGSGDGNPDPAANPNV); assay: as above
[28] = biological target: T11, Peptide #14 (Biotin-SGSGDGNPDPNAAPNV); assay: as above
[29] = biological target: T12, Peptide #15 (Biotin-SGSGDGNPDPNANANV); assay: as above
[30] = biological target: T13, Peptide #16 (Biotin-SGSGDGNPDPNANPAV); assay: as above
[31] = biological target: T14, Peptide #17 (Biotin-SGSGDGNPDPNANPNA); assay: as above
[32] = biological target: T15, Peptide #1 …; assay: as above
[33] = biological target: T17, full CSP protein (analyte of Example 12) (Plasmodium falciparum (isolate 3D7), UniProt Q7K740 19-374); assay: SPR, IgG1 from supernatant on anti-human IgG surface, CSP as analyte, 25 C, 1:1 fit
T17 construct: not shown: C-terminal tags

[34] = biological target: T16, Recombinant CSP (Wellcome Trust Sanger …); assay: SPR (ProteOn), biotinylated CSP on NLC chip, Fab as analyte, 25 C, 1:1 fit

Molecule: Mouse monoclonal antibody 2A10 (IgG2aK)
- Kd [1]: 0.04 nM
- koff [1]: 9.41e-05 s⁻¹
- kon [1]: 2.23e+06 M⁻¹ s⁻¹

B1: Antibody 669, human IgG1 (antibody, V domains shown)
VH: QVQLVQSGAEVKKPGASVRVSCKASGFTFTSYAMHWVRQAPGQRLEWMGWINAGNGHTKYSQKFQDRVAITRDTSATTVYMDLSSLRSEDTAVYYCTRDGFCTSTTCSDHYGMDVWGQGTTVTVSS
VL: QSALTQPASVSGSPGQSITISCTGTSSDVGSYNYVSWYQQHPGKAPKFMIYDVSKRPSGVSNRFSGSKSGNTASLTISGLQAEDEADYYCCSYAGSSTWVFGGGTKLTVL
notes: human IgG1; HEK (Expi293F) product; also called AB-000669; Ab669
- Response (nm) [2]: 5.06 nm
- Response (nm) [3]: 5.27 nm
- Response (nm) [4]: 3.76 nm
- Response (nm) [5]: 3.82 nm
- Response (nm) [6]: 3.86 nm
- Response (nm) [7]: 3.79 nm
- Response (nm) [8]: 3.68 nm
- Response (nm) [9]: 4.48 nm
- Response (nm) [10]: 2.18 nm
- Response (nm) [11]: 2.81 nm
- Response (nm) [12]: 0.0239 nm
- binding result [12]: no binding (tested: LOD 0.125 nm)
- Response (nm) [13]: 2.82 nm
- Response (nm) [14]: 3.66 nm
- Response (nm) [15]: 3.85 nm
- Response (nm) [16]: 5.83 nm
- Kd [17]: 0.47 nM
- koff [17]: 0.000125 s⁻¹
- kon [17]: 265000 M⁻¹ s⁻¹

B2: Antibody 666, human IgG1 (antibody, V domains shown)
VH: QVQLVQSGAEVKKPGASVKVSCKASGYTFTNYAMHWVRQAPGQRLEWMGWINAGNGNTKYSQNFQGRVTITRDTSASTAYMELSSLRSEDTAVYYCARDEYYASGSYYDYYYYGMDVWGQGTTVTVTS
VL: QSALTQPASVSGSPGQSITISCTGTSSDVGVYNYVSWFQQHPGKAPKLMIYNVSKRPSGVSNRFSGSKSGNTASLTISGLQAEDEADYYCCSYAGSSTWVFGGGTNLTVL
notes: human IgG1; also called Ab666
- Response (nm) [18]: 6.53 nm
- Response (nm) [19]: 7.06 nm
- Response (nm) [20]: 2.4 nm
- Response (nm) [21]: 3.14 nm
- Response (nm) [22]: 2.99 nm
- Response (nm) [23]: 2.23 nm
- Response (nm) [24]: 1.75 nm
- Response (nm) [25]: 5.18 nm
- Response (nm) [26]: 0.982 nm
- Response (nm) [27]: 0.0943 nm
- Response (nm) [28]: 0.0116 nm
- binding result [28]: no binding (tested: LOD 0.020 nm)
- Response (nm) [29]: 0.862 nm
- Response (nm) [30]: 2.7 nm
- Response (nm) [31]: 2.95 nm
- Response (nm) [32]: 9.06 nm
- Kd [17]: 0.18 nM
- koff [17]: 1.7e-05 s⁻¹
- kon [17]: 97000 M⁻¹ s⁻¹
- kon [33]: 1e+08 M⁻¹ s⁻¹

B3: Antibody 669 Fab (Fab, V domains shown)
VH: QVQLVQSGAEVKKPGASVRVSCKASGFTFTSYAMHWVRQAPGQRLEWMGWINAGNGHTKYSQKFQDRVAITRDTSATTVYMDLSSLRSEDTAVYYCTRDGFCTSTTCSDHYGMDVWGQGTTVTVSS
VL: QSALTQPASVSGSPGQSITISCTGTSSDVGSYNYVSWYQQHPGKAPKFMIYDVSKRPSGVSNRFSGSKSGNTASLTISGLQAEDEADYYCCSYAGSSTWVFGGGTKLTVL
notes: recombinant human Fab from CHO-3E7 cells, purified on nickel columns
- Kd [34]: 126 nM
- koff [34]: 0.00211 s⁻¹
- kon [34]: 16800 M⁻¹ s⁻¹

B4: Antibody 668 Fab (Fab, V domains shown)
VH: QVQLVQSGAEVKKPGASVKVSCKASGFTFTDYAMHWVRQAPGQRLEWMGWINAGNGYTKYSQKFQDRLTITRDTFASTVYMELSSLRSEDTTVYYCARDGFCPSNTCSGYYGMDVWGQGTTVTVSS
VL: QSALTQPASVSGSPGQSITISCTGTSSDVGSYNYVSWYQQHPGKAPKLMIYDVNTRPSGVSIRFSASKSGNTASLTVSGLQAEDEAVYYCSSYAGSSTWVFGGGTKLTVL
notes: as for B3
- Kd [34]: 12.5 nM
- koff [34]: 0.000473 s⁻¹
- kon [34]: 37900 M⁻¹ s⁻¹
